T1: SNAP25 Peptide 2 (PEP2) (Homo sapiens, UniProt P60880 SEQ:1-37)
T1 chain: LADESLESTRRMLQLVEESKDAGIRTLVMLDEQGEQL

T2: SNAP25 Peptide 3 (PEP3; only a fragment of it is a SNAP25 subsequence) (Homo sapiens, UniProt P60880 SEQ:1-33)
T2 chain: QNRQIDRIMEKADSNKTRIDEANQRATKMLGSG

B1: PEP 4.10 (ssDNA)
DNA: TTTTTAAGCCCACAAGACTGTGCGTCGCACAGATTGGCATCGTCGTGCCATG
modifications: W indole, X amine, Y phenol modified dU [19,25,34,35,40,43,46]
B2: PEP 3.09 (ssDNA)
DNA: TTTTTAAGCCCACTGCACTGTGTACATCGAACTGCACCAACGTGGGCCCATG
modifications: W indole, X amine, Y phenol modified dU [14X,19Y,23W,27X]
B3: PEP 4.09 (ssDNA)
DNA: TTTTTAACACGACATATGTTCGACGGACACAGTGTGTGGCGGTCGTGCCATG
modifications: W indole, X amine, Y phenol modified dU [15,17,19,20,35,43,46]
B4: PEP 4.11 (ssDNA)
DNA: TTTTTAAGCCCACCCGAGTTCGTCCAGCGAACCACGCGCGTGTCGTGCCATG
modifications: W indole, X amine, Y phenol modified dU [19,20,23,43,46]
B5: PEP 2.12 (ssDNA)
DNA: TTTTTAACACGACTAGACTGTGTATCCCACAGGGCAATGTGGTCGTGCCATG
modifications: W indole, X amine, Y phenol modified dU [14,19,23,25,38,40,43,46]
B6: PEP 2.15 (ssDNA)
DNA: TTTTTAACACGACGTTACTGTGGTCACCACAGGATGAGCTTGTCGTGCCATG
modifications: W indole, X amine, Y phenol modified dU [15,16,19,24,35,40,43,46]
B7: PEP 2.17 (ssDNA)
DNA: B6 DNA with C39G, T40C
modifications: W indole, X amine, Y phenol modified dU [15,16,19,24,35,43,46]
B8: PEP 2.18 (ssDNA)
DNA: B6 DNA with C27T, T40C
modifications: W indole, X amine, Y phenol modified dU [15Y,16W,19Y,24W,27X,35Y,43X,46Y]
B9: PEP 2.05 (ssDNA)
DNA: TTTTTAAGCCCACCCTACTGTGGTCACCACAGTGCAAGCCCGTCGTGCCATG
modifications: W indole, X amine, Y phenol modified dU [16,19,24,43,46]
B10: PEP 2.03 (ssDNA)
DNA: TTTTTAACACGACGGTGCTGTGCTGGTCACAGCACGCGCGCGTCGTGCCATG
modifications: W indole, X amine, Y phenol modified dU [16,19,24,27,43,46]
B11: PEP 2.11 (ssDNA)
DNA: TTTTTAAGCCCACTTGGCTGTGCACATCACAGAACAAGCAGGTGGGCCCATG
modifications: W indole, X amine, Y phenol modified dU [14,15,19,27]
B12: PEP 2.10 (ssDNA)
DNA: TTTTTAAGCCCACTGGCCTGTGGTCAGCGAACTGTGCGCTGGTGGGCCCATG
modifications: W indole, X amine, Y phenol modified dU [14,19,24,35,40]
B13: PEP 2.07 (ssDNA)
DNA: TTTTTAACACGACGTCGCTGTGGTCAACGAACAGATACAACGTCGTGCCATG
modifications: W indole, X amine, Y phenol modified dU [15,19,24,36,43,46]
B14: PEP 2.13 (ssDNA)
DNA: TTTTTAAGCCCACATGCCTGTGGTCATCGAACATTGGGCCGGTCGTGCCATG
modifications: W indole, X amine, Y phenol modified dU [15,19,24,27,34,35,43,46]
B15: PEP 2.04 (ssDNA)
DNA: TTTTTAACACGACATGGCTGTGGTCATCACAGCGCACCATTGTCGTGCCATG
modifications: W indole, X amine, Y phenol modified dU [15,19,24,27,40,43,46]
B16: PEP 2.14 (ssDNA)
DNA: TTTTTAAGCCCACGGGTCTGTGGTCACCGAACGACGTGGCAGTGGGCCCATG
modifications: W indole, X amine, Y phenol modified dU [17,19,24]
B17: PEP 2.06 (ssDNA)
DNA: TTTTTAACACGACCGGCCTGTGGTCAGCACAGACTGTTGTGGTCGTGCCATG
modifications: W indole, X amine, Y phenol modified dU [19,24,35,38,40,43,46]
B18: PEP 2.08 (ssDNA)
DNA: TTTTTAAGCCCACGTTTGTTCGGTGGTCACAGCACGCCACGGTCGTGCCATG
modifications: W indole, X amine, Y phenol modified dU [15,16,17,19,20,24,27,43,46]
B19: PEP 2.16 (ssDNA)
DNA: TTTTTAAGCCCACATAGGTTCGGTGGTCACAGTGTGGTGCGGTGGGCCCATG
modifications: W indole, X amine, Y phenol modified dU [15,19,20,24,27,35,38]
B20: PEP 2.09 (ssDNA)
DNA: TTTTTAACACGACATAGGTTCGCTGGTCACAGAATGTTGTGGTGGGCCCATG
modifications: W indole, X amine, Y phenol modified dU [15,19,20,24,27,35,38,40]
B21: SNAP.03 (ssDNA)
DNA: TTTTTAAGCCCACGGGTGTTCGACAGACACAGCAATACATCGTGGGCCCATG
modifications: W indole, X amine, Y phenol modified dU [17,19,20,36,40]
B22: SNAP.04 (ssDNA)
DNA: TTTTTAAGCCCACCCACCTGTGGACATCGAACCTCACTGCAGTGGGCCCATG
modifications: W indole, X amine, Y phenol modified dU [19,27,34,38]
B23: SNAP.07 (ssDNA)
DNA: TTTTTAACACGACCGGGCTGTGCACATCGAACACTGCGGTCGTCGTGCCATG
modifications: W indole, X amine, Y phenol modified dU [19,27,35,40,43,46]
B24: SNAP.05 (ssDNA)
DNA: TTTTTAAGCCCACCCCGGTTCGCCAGACGAACCCCAACAGTGTGGGCCCATG
modifications: W indole, X amine, Y phenol modified dU [19,20]
B25: SNAP.06 (ssDNA)
DNA: TTTTTAAGCCCACTTCGCTGTGAGCAACGAACATCGAGCAGGTCGTGCCATG
modifications: W indole, X amine, Y phenol modified dU [14,15,19,34,43,46]
B26: SNAP.08 (ssDNA)
DNA: TTTTTAACACGACTGAAGTTCGCCAGGCGAACATCGTGGTGGTCGTGCCATG
modifications: W indole, X amine, Y phenol modified dU [14,19,20,34,40,43,46]
B27: SNAP.02 (ssDNA)
DNA: TTTTTAAGCCCACACTGCTGTGAAGGACACAGCCCGACATCGTCGTGCCATG
modifications: W indole, X amine, Y phenol modified dU [16,19,40,43,46]

Substitutions are numbered along the chain they refer to.

T3 sequence (P60880 whole entry, the tested form may be a part): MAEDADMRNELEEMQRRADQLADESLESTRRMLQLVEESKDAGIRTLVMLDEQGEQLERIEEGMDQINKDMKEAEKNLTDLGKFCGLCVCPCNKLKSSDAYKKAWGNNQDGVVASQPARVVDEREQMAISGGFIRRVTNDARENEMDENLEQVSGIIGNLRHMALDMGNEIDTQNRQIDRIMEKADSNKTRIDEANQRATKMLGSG

For the first data set, the target named is T3, SNAP25 full length (FLAG and MYC tagged) (Homo sapiens, UniProt P60880 SEQ:12-217). In words: ELONA; full-length SNAP25. Particulars: tags: FLAG and MYC. An excerpt:
(§1) The data in Table 2 was collected by running direct ELISA assays on the 96 X-aptamers, elucidating their ability to bind SNAP25, SNAP25 fragments (PEP1, PEP2, PEP3, and PEP4), and a negative control. The X-aptamers were biotinylated and immobilized onto streptavidin-coated plates and were utilized as detection molecules. Higher numbers represent strong binding. The negative control peptide is a random peptide to measure the amount of binding that occurs to a random amino acid sequence.
B1 had a binding signal of 4 ELISA signal.

Regarding B2, the binding signal stood at 168 ELISA signal.

In turn, B3 yielded a binding signal of 0 ELISA signal.

As for B4, the binding signal was determined as 0 ELISA signal.

In a further data set the target is T1, SNAP25 Peptide 2 (PEP2). The data set is described as follows: ELONA.
Conditions: not given
From the text: as §1
B5 gave a binding signal of 37 ELISA signal.

The molecule B6 registered a binding signal of 36 ELISA signal.

In turn, B7 gave a binding signal of 30 ELISA signal.

B8 registered a binding signal of 26 ELISA signal.

The molecule B9 returned a binding signal of 159 ELISA signal.

In turn, B10 yielded a binding signal of 221 ELISA signal.

Turning to B11, the binding signal worked out at 40 ELISA signal.

Molecule B12 gave a binding signal of 43 ELISA signal.

On to B13, for which the binding signal was 65 ELISA signal.

B14 displayed a binding signal of 36 ELISA signal.

As for B15, the binding signal worked out at 190 ELISA signal.

For B16, the binding signal was 36 ELISA signal.

B17 had a binding signal of 102 ELISA signal.

B18 came in with a binding signal of 65 ELISA signal.

B19 came in with a binding signal of 31 ELISA signal.

Molecule B20 returned a binding signal of 46 ELISA signal.

The target in the next data set is T2, SNAP25 Peptide 3 (PEP3; only a fragment …). In words: ELONA.
Conditions: not given
From the text: as §1
In turn, B2 came in with a binding signal of 196 ELISA signal.

For a further data set, the target named is T3, SNAP25 full length (FLAG and MYC tagged). The data set is described as follows: ELONA. Particulars: tags: FLAG and MYC.
From the text: as §1
Turning to B21, the binding signal worked out at 92 ELISA signal.

B22 had a binding signal of 83 ELISA signal.

B23: the binding signal was found to be 38 ELISA signal.

B24: the binding signal is 75 ELISA signal.

Take B25: the binding signal stood at 45 ELISA signal.

For the molecule B26, the binding signal was determined as 35 ELISA signal.

On to B27, for which the binding signal is 95 ELISA signal.

Source of the values: patent publication US20220064648, “NOVEL X-[…] FOR THE USE IN DETECTION OF SNAP25” (Galderma Holding S.A., published 2022).
